Assay results taken from patent publication US10633455B2, “Method for treating and diagnosing disease using inhibitors of goodpasture antigen binding protein” (Fibrostatin S.L., priority 2011, dated 2020).

T1: GPBP (Homo sapiens, UniProt Q9Y5P4)
T1 sequence (Q9Y5P4 1-624): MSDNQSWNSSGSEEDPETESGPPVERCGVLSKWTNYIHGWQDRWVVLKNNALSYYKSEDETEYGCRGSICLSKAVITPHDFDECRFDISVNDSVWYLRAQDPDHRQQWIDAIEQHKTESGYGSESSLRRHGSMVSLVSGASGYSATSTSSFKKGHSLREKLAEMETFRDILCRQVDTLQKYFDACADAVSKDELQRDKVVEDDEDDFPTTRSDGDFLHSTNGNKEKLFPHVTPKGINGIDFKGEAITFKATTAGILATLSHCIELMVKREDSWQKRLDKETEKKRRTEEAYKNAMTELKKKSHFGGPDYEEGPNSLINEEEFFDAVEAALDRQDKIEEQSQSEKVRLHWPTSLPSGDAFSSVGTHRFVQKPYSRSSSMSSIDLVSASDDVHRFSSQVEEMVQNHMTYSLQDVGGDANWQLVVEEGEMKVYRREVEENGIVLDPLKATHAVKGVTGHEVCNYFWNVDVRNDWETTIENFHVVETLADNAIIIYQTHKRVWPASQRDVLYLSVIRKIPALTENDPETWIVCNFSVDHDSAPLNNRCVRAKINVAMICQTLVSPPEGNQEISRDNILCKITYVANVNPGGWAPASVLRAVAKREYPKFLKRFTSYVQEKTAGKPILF

B1: rcGPBP-1: Recombinant cGPBP-1 purified from culture media of a HEK 293 cell clone that constitutively secretes FLAG-GPBP-1 (protein)
chain: MSDNQSWNSSGSEEDPETESGPPVERCGVLSKWTNYIHGWQDRWVVLKNNALSYYKSEDETEYGCRGSICLSKAVITPHDFDECRFDISVNDSVWYLRAQDPDHRQQWIDAIEQHKTESGYGSESSLRRHGSMVSLVSGASGYSATSTSSFKKGHSLREKLAEMETFRDILCRQVDTLQKYFDACADAVSKDELQRDKVVEDDEDDFPTTRSDGDFLHSTNGNKEKLFPHVTPKGINGIDFKGEAITFKATTAGILATLSHCIELMVKREDSWQKRLDKETEKKRRTEEAYKNAMTELKKKSHFGGPDYEEGPNSLINEEEFFDAVEAALDRQDKIEEQSQSEKVRLHWPTSLPSGDAFSSVGTHRFVQKPYSRSSSMSSIDLVSASDDVHRFSSQVEEMVQNHMTYSLQDVGGDANWQLVVEEGEMKVYRREVEENGIVLDPLKATHAVKGVTGHEVCNYFWNVDVRNDWETTIENFHVVETLADNAIIIYQTHKRVWPASQRDVLYLSVIRKIPALTENDPETWIVCNFSVDHDSAPLNNRCVRAKINVAMICQTLVSPPEGNQEISRDNILCKITYVANVNPGGWAPASVLRAVAKREYPKFLKRFTSYVQEKTAGKPILF

Tests used:
doxorubicin-induced PF = assay: Doxorubicin-induced pulmonary fibrosis in mice; assay type: in vivo, C57BL/6 male mice
Experimental: For induction of PF with doxorubicin (Example 3), eight to ten weeks-old C57BL/6 male mice were purchased from Harlan Ibérica (Barcelona, Spain). For intratracheal (i.t.) instillation of doxorubicin (Sigma), mice were anesthetized by intraperitoneal (i.p.) injection of ketamine (50 μg/g of body weight), atropine sulphate (0.2 μg/g) and diazepam (4 μg/g). The trachea was localized by cutaneous incision in the anterior face of the neck and immobilized with forceps. Then 75 μl of doxorubicin chlorhydrate (1 mg/ml) were injected i.t. with a 30 G needle. Skin was then sutured with 3/0 silk. Mice were fed ad libitum with a normal chow diet and bled from the retro-orbital plexus at different time points after doxorubicin i.t. instillation. […] Mice instilled i.t. with doxorubicin were daily injected i.p. with either with 0.027, 0.08, 0.25 or 1.225 mg/kg of Pinacidil or with 0.11, 0.34 or 0.95 mg/kg of Myricetin. Mice were sacrificed twelve days after doxorubicin administration for gene expression analysis and anatomopathological studies of the lungs.
In PF assays, mouse lungs were intrabronchially perfused with 4% phosphate buffered formalin, then incubated in this fixative during 24 hours and finally embedded in paraffin. Tissue sections of 5 μm were stained with HE or with Masson's trichrome following conventional methods. For immunohistochemistry, paraffin-embedded lungs were stained with anti-GPBP-pep1 antibodies (3), which was detected with anti-chicken-HPR and DAB substrate (Dako Diagnósticos, S.A., Barcelona Spain). Specimens were counterstained with hematoxylin.
In assays of experimental pulmonary fibrosis, the expression of GPBP and of collagens type I and type IV mRNAs in the lung was analyzed by real-time quantitative PCR (RT-qPCR). One μg of the isolated RNA was used for cDNA synthesis with a RT-PCR kit (Amersham Pharmacia Biotech, Piscataway, N.J.), according to the manufacturer instructions. RT-qPCR was performed on a MX-3000P Stratagene instrument (Agilent Technologies, Inc., Santa Clara, Calif.) using specific primers SYBR Green PCR Master Mix (Applied Biosystems, Life Technologies Corporation). Primers used were: for α1(I) collagen gene, 5′ primer 5′-[…]-3′ (SEQ ID NO: 12) and 3′ primer 5′-[…]-3′ (SEQ ID NO: 13); for GPBP gene, 5′ primer 5′-[…]-3′ (SEQ ID NO: 14) and 3′ primer 5′-[…]-3′(SEQ ID NO: 15); for 18S gene, 5′ primer 5′-[…]-3′ (SEQ ID NO: 16) and 3′ primer 5′-[…]-3′ (SEQ ID NO: 17). Results (in triplicate) were normalized to the ribosomal 18S subunit expression and measured in parallel in each sample. Data were expressed as mean fold change relative to control samples.

GPBP = biological target: T1, GPBP; assay: Inhibition of autophosphorylating activity of GPBP in vitro; assay type: biochemical; settings: Pretswick Chemical Library selection (not shown)
A549 cells = assay: mRNA expression profile / KEGG pathway analysis of A549 cells cultured with rcGPBP-1; assay type: cell-based, human; settings: 200 ng/mL
Experimental: Human A549 cells were cultured with or without 200 ng/mL of rcGPBP-1 for 3 hours. Then cells were lysed and total RNA was extracted with RNeasy™ Protect mini kit (Qiagen, Valencia, Calif.) according to manufacturer's recommendations. RNA was quantified by spectrometry with a NanoDrop™ ND1000 (NanoDrop Technologies, Wilminton, Del.) and quality confirmed by RNA 6000 Nano Bioanalyzer (Agilent Technologies, Palo Alto, Calif.) assay. Briefly, 150 ng of total RNA were used to produce Cyanine 3-CTP-labeled cRNA using the Low Input Quick™ Amp Labelling Kit One-Color (Agilent) according to the manufacturer's instructions. Following ‘One-Color Microarray-Based Gene Expression Analysis’ protocol Version 6.0 (Agilent), 1600 ng of labelled cRNA were hybridized with the Whole Human Genome Oligo Microarray Kit (Agilent) containing 41000+ unique human genes and transcripts. Arrays were scanned in an Agilent Microarray Scanner according to the manufacturer's instructions and data extracted using Agilent Feature Extraction Software 10.7.1 following the Agilent protocol GE1_107_Sep09, grid template 014850_D_F_20100430 and the QC Metric Set GE1_QCMT_Sep09. Analysis was performed in the Genomics Core Service of the Centro de Investigación Príncipe Felipe (Valencia, Spain) using an Agilent Microarray Scanner (Agilent Technologies, Palo Alto, Calif.).
Raw data files were background corrected using supplier's methodology and intensity signal standardized across arrays via quantile normalization algorithm. Differential gene expression assessment of all comparisons was carried out using limma moderated t-statistics. Conventional adjustment for multiple testing proposed by Benjamini Hochberg (5) was used to derive adjusted P-values. Also, for each of the comparisons performed in the study, gene set analysis was carried out using logistic regression models, and correcting for multiple testing as before (5). All analyses where carried out using Babelomics™ (6) web suite at the Bioinformatics Department of Centro de Investigación Príncipe Felipe. Array data have been deposited in GEO (accession number GSE32181).

[1] = A549 + rcGPBP-1 vs A549, 3 hours, P. adjusted 0.1576

Row | Molecule | doxorubicin-induced fibrosis (α1(I) collagen mRNA) (doxorubicin-induced PF; all doses tested (0.11, 0.34 or 0.95 mg/kg daily i.p.), day 12 (FIG. 11B)) | autophosphorylating activity of GPBP (GPBP) | expression of pulmonary α1(I) collagen mRNA (doxorubicin-induced PF; daily dose of 0.08 mg/kg i.p., day 12, RT-qPCR (FIG. 11A)) | severity of doxorubicin-induced pulmonary fibrosis (doxorubicin-induced PF; daily dose of 0.08 mg/kg i.p., days 0-12, histology (FIG. 10)) | therapeutic effect (α1(I) collagen mRNA) (doxorubicin-induced PF; higher doses, 0.25 or 1.225 mg/kg/day (FIG. 11A)) | Log Odds Ratio, KEGG pathway hsa05322 SLE (A549 cells; A549 + rcGPBP-1 vs A549, 3 hours, P. adjusted 0.0003) | Log Odds Ratio, KEGG pathway hsa00380 Tryptophan metabolism (A549 cells; [1]) | Log Odds Ratio, KEGG pathway hsa04120 Ubiquitin mediated proteolysis (A549 cells; [1]) | Log Odds Ratio, KEGG pathway hsa04210 Apoptosis (A549 cells; [1]) | Log Odds Ratio, KEGG pathway hsa05200 Pathways in cancer (A549 cells; [1]) | Log Odds Ratio, KEGG pathway hsa05211 Renal cell carcinoma (A549 cells; [1]) | Log Odds Ratio, KEGG pathway hsa05222 Small cell lung cancer (A549 cells; [1]) | Log Odds Ratio, KEGG pathway hsa04510 Focal adhesion (A549 cells; A549 + rcGPBP-1 vs A549, 3 hours, P. adjusted 0.1579) | Log Odds Ratio, KEGG pathway hsa04914 Progesterone-mediated oocyte maturation (A549 cells; A549 + rcGPBP-1 vs A549, 3 hours, P. adjusted 0.1771) | Log Odds Ratio, KEGG pathway hsa05218 Melanoma (A549 cells; A549 + rcGPBP-1 vs A549, 3 hours, P. adjusted 0.3348) | changes in the expression of individual genes (A549 cells; A549 cells, microarray)
1 | O=c1c(O)c(-c2cc(O)c(O)c(O)c2)oc2cc(O)cc(O)c12 [myricetin] | efficient reduction | inhibit the autophosphorylating activity of GPBP in vitro | – | – | – | – | – | – | – | – | – | – | – | – | – | –
2 | CC(N/C(=N\C#N)Nc1ccncc1)C(C)(C)C (centres unmarked) [pinacidil] | – | inhibit the autophosphorylating activity of GPBP in vitro | significant reduced expression | sharply reduced | lost | – | – | – | – | – | – | – | – | – | – | –
3 | B1 | – | – | – | – | – | 0.1444 | −0.1522 | −0.1130 | −0.1307 | −0.0843 | −0.1355 | −0.1253 | −0.0969 | −0.1223 | −0.1196 | No statistically significant changes
